Test: soluble on expression in E. coli; label from the status in PepcDB or PDB records

Sequence	soluble on expression in E. coli
MGDIMRPIPFEELLTRIFDEYQQQRSIFGIPEQQFYSPVKGKTVSVFGETCATPVGPAAGPHTQLAQNIVTSWLTGGRFIELKTVQILDRLELEKPCIDAEDECFNTEWSTEFTLLKAWDEYLKAWFALHLLEAMFQPSDSGKSFIFNMSVGYNLEGIKQPPMQQFIDNMMDASDHPKFAQYRDTLNKLLQDDAFLARHGLQEKRESLQALPARIPTSMVHGVTLSTMHGCPPHEIEAICRYMLEEKGLNTFVKLNPTLLGYARVREILDVCGFGYIGLKEESFDHDLKLTQALEMLERLMALAKEKSLGFGVKLTNTLGTINNKGALPGEEMYMSGRALFPLSINVAAVLSRAFDGKLPISYSGGASQLTIRDIFDTGIRPITMATDLLKPGGYLRLSACMRELEGSDAWGLDHVDVERLNRLAADALTMEYTQKHWKPEERIEVAEDLPLTDCYVAPCVTACAIKQDIPEYIRLLGEHRYADALELIYQRNALPAITGHICDHQCQYNCTRLDYDSALNIRELKKVALEKGWDEYKQRWHKPAGSGSRHPVAVIGAGPAGLAAGYFLARAGHPVTLFEREANAGGVVKNIIPQFRIPAELIQHDIDFVAAHGVKFEYGCSPDLTIEQLKNQGFHYVLIATGTDKNSGVKLAGDNQNVWKSLPFLREYNKGTALKLGKHVVVVGAGNTAMDCARAALRVPGVEKATIVYRRSLQEMPAWREEYEEALHDGVEFRFLNNPERFDADGTLTLRVMSLGEPDEKGRRRPVETNETVTLLVDSLITAIGEQQDTEALNAMGVPLDKNGWPDVDHNGETRLTDVFMIGDVQRGPSSIVAAVGTARRATDAILSRENIRSHQNDKYWNNVNPAEIYQRKGDISITLVNSDDRDAFVAQEAARCLECNYVCSKCVDVCPNRANVSIAVPGFQNRFQTLHLDAYCNECGNCAQFCPWNGKPYKDKITVFSLAQDFDNSSNPGFLVEDCRVRVRLNNQSWVLNIDSKGQFNNVPPELNDMCRIISHVHQHHHYLLGRVEV	soluble
MNRSNQDITQPTAIIAVVGVGAEQGIGAAVCRRFAQEKFKVYVAGRTLNKVEKVAAAIHRQGGQAVAYVLDAENEQQLQTLFDHLNDQPEALAAVIHNVGGNIPSIFLQSSLKFFSQMWRSTFLSSVLVAQRSLSIFQKQQQGTLIFTGASASLRGKPFFAAFSMGKSALRSYALNLAELYRSQNIHVAHVMVDGMVDGDRVNKALWGLGRLARLTRGTGGLNIDAIAENYWMLYQQNVDLWTHELDLRPYQEKF	not soluble
MLQGHRTWVFENKPVIISTGVVGGPFEAKGNIPEDFDILHEDLWLGQDSYEKAHKILFEEACSRATEKAELRKDDIQFVLAGDLINQITPTSFACRTLGTPYLGLFGACSTSMEGLALGASIVNAKGAKYLLTGASSHNTAVEKQFRYPTEYGGQKPPTAQWTVTGAGAAILSDTGHGPRVTSATIGRVIDMGLTDPFNMGGAMAPAAVDTIEAHLRERQIDASYYDLIVTGDLGHVGREIAYDLLHKHGTKVTSEQFQDCGIIIYREGQPVIAGASGPGCSATVVYGHLLNRMKRGEFKKILVVATGALLSPLTFQQEETIPCIAHAVSIEFGGATQLEHHHHHH	soluble
MGSDKIHHHHHHDLDGAITTPAAVELALNGIYYSLPGNGFNVIFPTVSGSFKAGTMWRQEIVSAGNAVYYSERMLPTLSFSDATEWDADYAVIKNANFLETACNRMSDGEFSGNRRAEVLGEIAYLRALAYFNILVRYCEFWDMNSEYGVVMRNEAPSVSNALKARSSVADSYQYILDQLEIAIEKAPDWKKLSQASKEAAKALKARVLLYAGKYTEAVAAVNDAIDTNSPLPEANYGDVFDKFSTTKEILFARVFDQKDATNTSTRQQCYGNSPTKKQGYWGPTNEYVELVGDDPRADAIFSKVDSLMDSRSSAVAYNLKSVKKLLNDANDMPVIFSRVSELYLIKAEALYRSGASISEAYAPIRKLRERAGAEIILPANNEELETAIFNEWMLELSFENWHEWFAMIRFAGYTEKPDFTRLLALNKTLREALEKEYEKSEAQGDNYYQRIIDRRIDAIPSSEISSNLECKQNPGY	not soluble
MTKNDNTIFKDIYQLWFTQYKQTVKESTWVTTQRLFRLHILPIFSDYRIAKISIKDCQKAINQWFNAGLAKYHTLMNYVAKVLDYAINIDLISENPAKRVIVPVNKNDRSLEHHHHHH	soluble
GNMDSKAVEELSATECHQWYKKFMTECPSGQLTLYEFKQFFGLKNLSPSANKYVEQMFETFDFNKDGYIDFMEYVAALSLVLKGKVDQKLRWYFKLYDVDGNGCIDRGELLNIIKAIRAINRCNEAMTAEEFTNMVFDKIDINGDGELSLEEFMEGVQKDEVLLDILTRSLDLTHIVKLIQNDGKNPHAPEEAEEAAQ	soluble
CRYVARNGFQGVIVQCETSDGDDIPAEDDREGPPLSRGVFYNDGYDERQGKLILGIFPTGQCPSPIGNGSGTATDVTGEPEKTFSGRGFGRTSPTGMMSSLGAQREMTGLYDLPTTNGNDGEKPADPNGEGRGFTNKNAGTSCTEANAHT	soluble
MERGVDNWKVDCKCGTKDDDGERMLACDGCGVWHHTRCIGINNADALPSKFLCFRCIEL	soluble
MGVDRQILVEGDNVTKPKNGQTVTCHYVLTLENGKKIDSSRDRGTPFKFKIGKGEVIKGWDQGVAQMSVGEKSKLTISADLGYGPRGVPPQIPANATLVFEVELLGVN	soluble
MKIAFLFRTSPHGTSISREGLDAILAATAFCEPNDIGIFFIDDGVLNLIDNQQPEIIQQKDFIRTFKLLDLYDVEQRFICTASLQKFKLDNRELILSCEKIDRSLLLEKLNQAGKLFTF	not soluble
MQEEVNQKTVALSIRTTKLTGKVLAAALGKVVRALQKHHRKALTPQGRQSVKKLMNHYGGKSAMPYVGAPKDFDRIAKEFHVDYAFHKVSPGHYLLFFKANQADAITAAFQKYSAKVLNKEQDKASILGQLRKFTEQIRTQAKEKQRTREAVKDGR	not soluble
MGSDKIHHHHHHMRVAMWSGPRNLSTAMMYAFGNRPDCEAWDEPFYAAYLAQTGLDHPMRQTVLASQPPHYGAVVERLLATPTQPVQYLKLMTHHMLPDTSLTWATGFANIHLIRHPARVIASYTAKRAEITLDDIGFPQAARLHTALPGPIIDSADIRAAPEAMLRSLCEAIDLPFDPAMLHWPAGPKPFDGAWAPHWYDAVHRSTGFAAAEGHLPEVPDHHRGLLKDALDIYETLHQSRLRP	not soluble
MGHHHHHHGGHMSLNISDVAKITGLTSKAIRFYEEKGLVTPPMRSENGYRTYTQQHLNELTLLRQARQVGFNLEESGELVNLFNDPQRHSADVKRRTLEKVAEIERHIEELQSMRDQLLALANACPGDDSADCPIIENLSGCCHHRAGEGGS	soluble
MVIVGGQDRSISTRQGAAMTDTPPPETDAAPEVPGAAPGKTLTPAARRALEEAAARRAAEAALSLPPEEGGRDGPEPTRFGDWEKKGVAVDFLEHHHHHH	not soluble
MEHRDIVIVGGGMVGSALGAALSGKGLSVSVLEREAPAPFAPEQAPDLRVSAISPASAAFLQTIGAWGQALAMRAAPYRRMQVWERDEAAGTLFDAAEAGVPELGHIVENRVVQLAATEALLAKGDIDYRCPAVVSDIVYRPQASQLTLSDGSRLQARLLIAADGARSQVRDAAGIGVTGWDYPMHALVLSCRIDGGQQDITWQRFTPDGPQAFLPLSGDAASLVWYHRPEEVKRLLTLGDDELIAAVSQAFPRKLPGIRELAARGSFGLTRRHAQCYVKDGVALAGDAAHTIHPLAGQGVNLGFQDAAMLARTILDAHAKGEDWASGKTLVRYQRARKPANLAMQAGMDAFCYGFANDIGPLRLLRGLGLRLADKAGPLKREAIRYALGLRALEHHHHHH	not soluble
MGSSHHHHHHGKTIFVIVPTNEEQVAFLEALAKQDELNFDWQNPPTEPGQPVVILIPSDMVEWFLEMLKAKGIPFTVYVEEGGSENLYFQGGGGGGAHSLMRQMMLASVIRFTAVFLGIRRCRGAFVVAPLFVLQPLLQHLQQLITHPLTCLQGGIQWQLHALVEHLVHLQHLPSPRVQLSHVTKKRRAPVRKVVCGRIIHVHRTLLLLKQLRLLGVPGTQRAESSEHGGEPLTAVLVQLDKSIASRSGDNGDGGGRCR	not soluble

From the DeepSol protein solubility set
